Earlier results on 1 substance are cited in paper PMC2650229.

The target in this data set is ERp57 b' domain (Homo sapiens) (UniProt P30101).
Sequence of UniProt P30101 (P30101 241-360): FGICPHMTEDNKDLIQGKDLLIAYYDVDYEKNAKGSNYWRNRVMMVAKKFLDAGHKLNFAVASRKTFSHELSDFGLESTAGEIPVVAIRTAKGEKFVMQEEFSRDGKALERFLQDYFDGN

Consider “calreticulin P-domain (from UniProt P27797)”, for which the Kd is 2.6 µM.
